Positions count from the first letter of the chain named. In names and notes the source's numbering stands.

Consider three molecules from PMC3319311 (Nature, 2012).

Assay [1] concerns the target T1, Caenorhabditis elegans OTUB1 (Caenorhabditis elegans, UniProt Q9XVR6).
T1 sequence: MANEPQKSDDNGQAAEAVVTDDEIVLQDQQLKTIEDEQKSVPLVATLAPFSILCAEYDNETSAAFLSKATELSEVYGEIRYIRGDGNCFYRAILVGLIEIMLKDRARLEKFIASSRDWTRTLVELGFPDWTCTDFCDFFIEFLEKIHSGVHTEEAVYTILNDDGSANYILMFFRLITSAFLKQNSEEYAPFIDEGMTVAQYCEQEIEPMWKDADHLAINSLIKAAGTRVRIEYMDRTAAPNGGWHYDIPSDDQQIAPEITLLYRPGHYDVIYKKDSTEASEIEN
The assay is described as follows: fluorescence polarisation. (Fluorescence polarisation rises when a labelled molecule tumbles more slowly, as on binding a larger partner.)

Assay [2] addresses hOTUB1 F193W (human, UniProt Q96FW1 1-271, F193W). The assay is described as follows: fluorescence polarisation.
In assay [3] the target is T2, human OTUB1 (OTU domain-containing ubiquitin aldehyde-binding protein 1) (human, UniProt Q96FW1 1-271). The assay is described as follows: fluorescence polarisation.
T2 sequence (Q96FW1 whole entry, the tested form may be a part): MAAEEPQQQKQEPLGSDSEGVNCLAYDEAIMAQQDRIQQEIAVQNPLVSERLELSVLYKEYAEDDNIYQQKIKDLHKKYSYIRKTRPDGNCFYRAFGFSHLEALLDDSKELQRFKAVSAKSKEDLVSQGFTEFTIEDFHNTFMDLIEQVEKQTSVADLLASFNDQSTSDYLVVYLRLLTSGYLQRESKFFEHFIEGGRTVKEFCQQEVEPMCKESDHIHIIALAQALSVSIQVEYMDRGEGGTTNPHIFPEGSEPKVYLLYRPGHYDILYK
The target in assay [4] is hOTUB1 F193R (human, UniProt Q96FW1 1-271, F193R). The assay can be described thus: fluorescence polarisation.
Sequence of hOTUB1 F193R (Q96FW1 whole entry F193R): as the sequence (Q96FW1 whole entry, the tested form may be a part) above, with F193R counted along it
Assay [5] concerns the target hOTUB1 H217W (human, UniProt Q96FW1 1-271, H217W). The assay is described as follows: fluorescence polarisation.
For assay [6], the target named is His6-tagged human OTUB1 (human, UniProt Q96FW1 1-271). The assay can be described thus: pull-down.
Sequence of His6-tagged human OTUB1 (Q96FW1 whole entry): as the sequence (Q96FW1 whole entry, the tested form may be a part) above
For assay [7], the target named is hOTUB1Δ15 (human, UniProt Q96FW1 16-271). The assay is described as follows: pull-down.
Sequence of hOTUB1Δ15 (Q96FW1 16-271, stated change not applied): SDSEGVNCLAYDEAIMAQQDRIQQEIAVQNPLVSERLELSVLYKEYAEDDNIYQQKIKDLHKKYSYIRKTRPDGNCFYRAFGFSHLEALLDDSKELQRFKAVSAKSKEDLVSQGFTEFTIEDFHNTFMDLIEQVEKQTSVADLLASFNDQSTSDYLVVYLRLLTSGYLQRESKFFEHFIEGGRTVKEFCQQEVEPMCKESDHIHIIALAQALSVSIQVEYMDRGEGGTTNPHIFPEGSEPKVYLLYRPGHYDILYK
The target in assay [8] is T2, human OTUB1 (OTU domain-containing …). The assay is described as follows: SEC. On the technique in general: In gel filtration, larger molecules generally elute earlier.

Sequence of hOTUB1 F193W (Q96FW1 whole entry F193W, the tested form may be a part): as the sequence (Q96FW1 whole entry, the tested form may be a part) above, with F193W counted along it
Sequence of hOTUB1 H217W (Q96FW1 whole entry H217W): as the sequence (Q96FW1 whole entry, the tested form may be a part) above, with H217W counted along it

B1: fluorescein-labeled human UBC13 (enzyme)
chain: MAGLPRRIIKETQRLLAEPVPGIKAEPDESNARYFHVVIAGPQDSPFEGGTFKLELFLPEEYPMAAPKVRFMTKIYHPNVDKLGRICLDILKDKWSPALQIRTVLLSIQALLSAPNPDDPLANDVAEQWKTNEAQAIETARAWTRLYAMNNI
modifications: labeled with fluorescein-5-maleimide
Turning to B1, the Kd in assay [1] is 58.5 µM; in assay [3], 7.04 µM. Also, the binding result in assay [2], in assay [4] and in assay [5] was “binds” throughout.

B2: UBC13^C87S~Ub oxyester (complex)
chain 1: B1 chain with C87S
chain 2: […]
Turning to B2, the binding result in assay [6] and in assay [7] was “binds” each time.

B3: human UBC13 (UBE2N) (enzyme)
chain: B1 chain
As for B3, the binding result in assay [8] is given as “binds”.

Usually Kd stands for a measure of binding affinity in units of concentration.
